These results are taken from publication PMC7133447.

The target of data set [1] is transferrin receptor (TfR) / EpCAM on 4T1 cells (mouse) (UniProt Q62351). Description: flow cytometry (4T1 cells). To be noted: Live-cell flow cytometry, 5e5 cells, 0-400 nM aptamer, PBS with 10% FCS, 0.1 mg/mL tRNA, 0.1 mg/mL BSA, 60 min, 37 C; aptamer folded in PBS with 5 mM MgCl2.
For data set [2], the target named is T1, epithelial cell adhesion molecule (EpCAM) on MDA-MB-231 cells (human) (UniProt P16422).
T1 sequence: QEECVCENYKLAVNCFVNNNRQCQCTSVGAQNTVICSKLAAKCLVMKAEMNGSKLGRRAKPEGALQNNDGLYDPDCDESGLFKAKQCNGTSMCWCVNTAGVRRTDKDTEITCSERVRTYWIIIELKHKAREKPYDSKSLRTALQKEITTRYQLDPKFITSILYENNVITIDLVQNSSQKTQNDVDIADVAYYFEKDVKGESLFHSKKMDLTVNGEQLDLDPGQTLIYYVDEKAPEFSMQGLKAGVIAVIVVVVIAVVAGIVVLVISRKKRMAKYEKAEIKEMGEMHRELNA
Description: flow cytometry (MDA-MB-231 cells). To be noted: Live-cell flow cytometry, 5e5 cells, 0-400 nM aptamer, PBS with 10% FCS, 0.1 mg/mL tRNA, 0.1 mg/mL BSA, 60 min, 37 C, aptamer folded in PBS with 5 mM MgCl2.

The target in data set [3] is transferrin receptor (TfR) on bEnd.3 cells (mouse) (UniProt Q62351). As to the kind of experiment: flow cytometry (bEnd.3 cells). The following applies: Live-cell flow cytometry, 5e5 cells, 0-400 nM aptamer, PBS with 10% FCS, 0.1 mg/mL tRNA, 0.1 mg/mL BSA, 60 min, 37 C, aptamer folded in PBS with 5 mM MgCl2.
Chain of transferrin receptor (TfR) on bEnd.3 cells (mouse) (Q62351 whole entry): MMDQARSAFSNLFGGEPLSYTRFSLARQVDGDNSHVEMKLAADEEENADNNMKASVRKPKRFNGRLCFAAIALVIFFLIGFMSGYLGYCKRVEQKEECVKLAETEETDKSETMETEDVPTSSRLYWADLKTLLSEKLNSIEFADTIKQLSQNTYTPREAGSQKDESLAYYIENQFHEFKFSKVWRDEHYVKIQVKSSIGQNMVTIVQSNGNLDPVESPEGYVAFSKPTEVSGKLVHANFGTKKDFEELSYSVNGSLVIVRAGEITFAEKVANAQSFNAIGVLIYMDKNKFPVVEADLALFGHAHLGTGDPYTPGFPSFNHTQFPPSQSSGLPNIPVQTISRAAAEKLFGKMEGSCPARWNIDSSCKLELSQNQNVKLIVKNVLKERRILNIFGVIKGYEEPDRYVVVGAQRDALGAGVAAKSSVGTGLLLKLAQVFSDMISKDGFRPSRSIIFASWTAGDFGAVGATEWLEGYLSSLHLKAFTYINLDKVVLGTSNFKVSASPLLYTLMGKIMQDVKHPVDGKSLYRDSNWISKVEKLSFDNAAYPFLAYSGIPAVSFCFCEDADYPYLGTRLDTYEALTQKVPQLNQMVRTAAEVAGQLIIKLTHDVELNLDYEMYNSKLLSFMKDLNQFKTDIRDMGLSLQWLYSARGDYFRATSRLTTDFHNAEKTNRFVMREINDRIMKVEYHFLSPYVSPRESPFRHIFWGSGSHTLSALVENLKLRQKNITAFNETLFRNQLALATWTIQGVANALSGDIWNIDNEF
The mark [4] stands for this setting: doxorubicin intercalated (non-covalent, about 2-3 per aptamer).

Chain of transferrin receptor (TfR) / EpCAM on 4T1 cells (mouse) (Q62351 whole entry): as above

For the sequence “GCGCGGTACCGCGCTAACGGAGGTTGCGTCCGT [TEPP]”, the Kd was 27.6 nM in data set [1], 85.6 nM in data set [2] (cited from earlier work) and 110 nM in data set [3] (cited from earlier work).
For the sequence “GCGCGTGCACGCGCTAACGGATTCCTTTTCCGT [TENN]”, the Kd in data set [2] (cited from earlier work) and in data set [3] (cited from earlier work) was over 10000 nM throughout.
As to “GCGCGTGCACGCGCTAACGGATTCCTTTTCCGT [TENN-DOX]”, the dissociation constant Kd in data set [2] (setting [4]) is over 10000 nM; in data set [3] (setting [4]), 865 nM.
In the same order, the values of “GCGCGGTACCGCGCTAACGGAGGTTGCGTCCGT [TEPP-DOX]” are 536 nM and 119 nM.
